Consider 18 sequences from the supplement of paper PMC12764529.

± gives the half width of the 95% confidence interval.

A short description of series [1]: folding stability dG unfold from chymotrypsin proteolysis; higher = more stable. A digest of the protocol: (§1)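 Bayesian fitting of sequencing counts gave K50 for each design. Unfolding free energy followed by setting this against a sequence-predicted unfolded-state K50 and a shared folded-state K50, either per protease or with trypsin and chymotrypsin combined. The designs, under 80 residues and lacking cysteine, were digested in a PA-tagged cDNA display format at 11 threefold-diluted protease concentrations and without protease, and only those with AlphaFold2 dimer inter-PAE above 15 were kept.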

Series [2] is described as follows: folding stability dG unfold from trypsin proteolysis; higher = more stable. A digest of the protocol: as §1
The nature of series [3]: folding stability dG unfold (combined trypsin and chymotrypsin); higher = more stable. A digest of the protocol:
as §1

Consider “SATFRLPNGKTISIMAPLPPGEMTPDQVISMARMIVRNIFPPGKKVEVKIEVEQYPNGMVHVKIPIKAESAG [r14_389_TrROS]”, for which the “folding stability dG unfold” value in series [1] came out at 0.312 ± 0.28 kcal/mol; in series [2], 0.0799 ± 0.31 kcal/mol; in series [3], 0.406 ± 0.4 kcal/mol.
For “SATIEIPIKVNDRKFRISIERMPDGWIKIQIRDPNMPKDAVKDALREILGPGWKIDTDPETNTIYIPFKSAG [r14_370_TrROS]”, the “folding stability dG unfold” value worked out at 2.77 ± 0.027 kcal/mol in series [1], 2.41 ± 0.061 kcal/mol in series [2] and 2.67 ± 0.059 kcal/mol in series [3].
Take “SATKEIEIEVNGRKLRIRIERKEDGSIKITIELPGMSAEEVKEALRKLLPPDAKITVDEITVTEYREEPSAG [r14_370_TrROS_Hall]”: the “folding stability dG unfold” value stood at 2.43 ± 0.17 kcal/mol in series [1], 3.14 ± 0.17 kcal/mol in series [2] and 2.84 ± 0.3 kcal/mol in series [3].
The matching figures for “SATREIELPGKKITIHHNPGNNMFRITIYDPKPGKPVEIPIPANNPGMTMENIIDQIREAAKKGRPVRISAG [r14_157_TrROS]”: 0.671 ± 0.079 kcal/mol, 0.85 ± 0.036 kcal/mol and 0.885 ± 0.082 kcal/mol.
For “SATTTLNLSSVEELKELVEKLIAEGNPEATLTVTLYPPSGESSTKSFSSVEEVIEELKKGPASVTITVTSSA [r9_589_JUSTAS]”, in that order: 2.7 ± 0.022 kcal/mol, 2.18 ± 0.045 kcal/mol and 2.56 ± 0.049 kcal/mol.
For “SATVTLVSVEKEGDKTTVTTRDPSGYTVTVTNPDGSIVLAPIPAEGAEAAIAAIKAAHPGVTVTLEAAASAG [r14_528_JUSTAS]”, in that order: 1.24 ± 0.031 kcal/mol, 0.617 ± 0.036 kcal/mol and 1.15 ± 0.11 kcal/mol.
Consider “SAVEIEFWFPGGMSVEEFVNEFSKILPGLRDVDIGVEPYPETDMWKVTATIRIVPPPSPEDQEEMQKNKSAG [r14_645_TrROS]”, for which the figures for the “folding stability dG unfold” value in series [1], in series [2] and in series [3] were 1.7 ± 0.051 kcal/mol, 1.38 ± 0.07 kcal/mol and 1.62 ± 0.1 kcal/mol, respectively.
The matching figures for “SAVELPPDASITAVTVDPSGSRTVEVEVKTTTAYVYDPATGTTTTVPPGVRTVVTLPADVPVTVSFTSPSAG [r14_385_JUSTAS]”: 0.484 ± 0.084 kcal/mol, 0.252 ± 0.099 kcal/mol and 0.413 ± 0.085 kcal/mol.
For “SAVINIEAWFPPGKSVEEAVDEAKNIIHQFGFEIDDVDVERDPNGWVRVDFTIKIKPPMPPEQRKKLQDSAG [r14_110_TrROS]”, in that order: 2.91 ± 0.091 kcal/mol, 1.25 ± 0.051 kcal/mol and 2.45 ± 0.26 kcal/mol.
For “SAVIPLEELARKVAEELGLEPVEVLEVIPEEGVVVMRFEGAVIVVKVDPETGEAEVEIVVFDPETGKPVSAG [r14_270_TrMRF]”, in that order: 3.35 ± 0.063 kcal/mol, 2.82 ± 0.11 kcal/mol and 3.16 ± 0.085 kcal/mol.
For “SAVITYPIPDDKPTLILEPLPGSESLLILSTKREKIPNGTYKVEALVVRYEPALGASVEEKVELIEPIGSAG [r14_591_JUSTAS]”, the “folding stability dG unfold” value was -0.216 ± 0.56 kcal/mol in series [1], -0.819 ± 0.46 kcal/mol in series [2] and -0.239 ± 0.22 kcal/mol in series [3].
The matching figures for “SAVPLELPLSDEELRELLEKHSVDSTITLTLKVGDRWVRVTVTLKEVKREPNRLSVSVELTVTPLPPEESAG [r14_335_JUSTAS]”: 4.08 ± 0.051 kcal/mol, 2.86 ± 0.07 kcal/mol and 3.81 ± 0.13 kcal/mol.
Take “SAVPLSEEELEALLEEKAKEKAEEILKENPELPPGAVIKIKVEYEQEVVLEDKVEPVKYEREVEYKVPLSAG [r14_486_JUSTAS]”: the “folding stability dG unfold” value is -0.503 ± 0.76 kcal/mol in series [1], 0.00158 ± 0.12 kcal/mol in series [2] and -0.0614 ± 0.44 kcal/mol in series [3].
The matching figures for “SAVVLKEPGPVTTVVTTDPATGVTTTVTTDPSAGTTTVTTTDPASAAVTTTTYTTLPDGTPVPTTTTTPASA [r9_1073_JUSTAS]”: 0.86 ± 0.032 kcal/mol, 1.22 ± 0.031 kcal/mol and 1.05 ± 0.038 kcal/mol.
In the case of “SAWIPAKEIAKYLAKELQEKMPHPGMKIPVDVETNPEENYVRVDIDIEHPGDGGKWKFEIYIPPGDTIVSAG [r14_849_TrROS]”, the results for the “folding stability dG unfold” value in series [1], in series [2] and in series [3] were 1.8 ± 0.095 kcal/mol, 0.664 ± 0.038 kcal/mol and 1.29 ± 0.12 kcal/mol, respectively.
For “SAWNFKIEEVEVDPNDGRIWFTVKIPPNNPELAEEIAEELQDYGIKVKLINPDLPPGQTIIVQIEVKDPSAG [r14_354_TrROS]”, in that order: 2.09 ± 0.18 kcal/mol, 1.3 ± 0.096 kcal/mol and 1.83 ± 0.18 kcal/mol.
For the sequence “SAWYIIKIEIYNPGQNEPIASHTFMVPEEDLDAFKEKIADQFGMNPGWQIKVEIQPIPPVRDKDGEWKWSAG [r14_297_TrROS]”, the “folding stability dG unfold” value in series [1] amounted to 2.13 ± 0.077 kcal/mol; in series [2] it was 1.54 ± 0.036 kcal/mol; in series [3], 1.91 ± 0.086 kcal/mol.
Turning to “SAYKITIKITITDPVTGETTTITVELISSEEEAKKEAEKLAASYPGKKVTIDLVEVVPVPPLSEEELKLSSA [r9_421_JUSTAS]”, the “folding stability dG unfold” value in series [1] stood at 2.68 ± 0.054 kcal/mol; in series [2] it was 1.91 ± 0.081 kcal/mol; in series [3], 2.43 ± 0.12 kcal/mol.
